This note sets out measurements from FireProtDB (doi:10.1021/bi00025a018).

For this data set the following is noted: Escherichia coli (strain K12), Thermal, CD, NaCl 0.1 M, reversible: yes, whole UniProt chain shown.

B1: Ribonuclease HI wild type, P0A7Y4 (protein)
chain: MLKQVEIFTDGSCLGNPGPGGYGAILRYRGREKTFSAGYTRTTNNRMELMAAIVALEALKEHCEVILSTDSQYVRQGITQWIHNWKKRGWKTADKKPVKNVDLWQRLDAALGQHQIKWEWVKGHAGHPENERCDELARAAAMNPTLEDTGYQVEV
In general, Tm refers to the temperature at which the thermal transition is half complete. In the case of B1, where the note is “pH 3, glycine-HCl 10 mM”, the Tm was 50.9 °C and the “unfolding enthalpy (van 't Hoff)” value turned out to be 443 kJ/mol. In addition, under “pH 5.5, Sodium acetate 10 mM”, the Tm amounted to 52.5 °C and the “unfolding enthalpy (van 't Hoff)” value is 342 kJ/mol.
